B1: TRIM43 (parent)
chain: FCDMDKSLLCLLCSNSQEHGAHKH

Variants of: B1
Test: protein stability index of a GFP-peptide fusion (GPS, HEK-293T) (PSI 1-6); higher = more stable
Conditions: c terminus: a fixed tail appended
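Also: lentivirally expressed fusions sorted by FACS into six bins by GFP to DsRed ratio, PSI derived from sequencing read proportions per bin multiplied by bin number.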

| Variant | protein stability index |
| --- | --- |
| FCDMDKGLLCLLCSNSQEHGAHKH | 1.92 |
| FCDMDKSLLCLLCSNSQEHGAHKN | 2.26 |
| FCDMDKSLLCLLCSNSQEHGAHKK | 1.89 |
| FCDMDKSLLCLLCSNSQEHGAHKS | 1.58 |
| FCDMDKSLLCLLCSNSQEHGAHKY | 1.36 |
| FCDMGKSLLCLLCSNSQEHGAHKH | 2.33 |
| FCDMLKSLLCLLCSNSQEHGAHKH | 2.69 |
| FCDMPKSLLCLLCSNSQEHGAHKH | 2.29 |
| FCDMWKSLLCLLCSNSQEHGAHKH | 3.29 |
| FCDMHKSLLCLLCSNSQEHGAHKH | 3.33 |
| FCDMRKSLLCLLCSNSQEHGAHKH | 1.74 |
| FCDMMKSLLCLLCSNSQEHGAHKH | 2.97 |
| FCDMIKSLLCLLCSNSQEHGAHKH | 3.01 |
| FCDMYKSLLCLLCSNSQEHGAHKH | 2.18 |
| FCDMDKSLLCLLCSNSQEDGAHKH | 2.38 |
| FCDMDKSLLCLLCSNSQEYGAHKH | 1.91 |
| FCDMDKSLLCLLCSNSQEEGAHKH | 1.98 |
| FCDMDKSLLCLLCSNSQEMGAHKH | 2.03 |
| FCDMDKSLLCLLCSNSQERGAHKH | 2.03 |
| FCDMDKSLLCLLCSNSQEKGAHKH | 2.11 |
| FCLMDKSLLCLLCSNSQEHGAHKH | 1.93 |
| FCYMDKSLLCLLCSNSQEHGAHKH | 2.48 |
| FCWMDKSLLCLLCSNSQEHGAHKH | 1.8 |
| FCIMDKSLLCLLCSNSQEHGAHKH | 1.94 |

| Variant | protein stability index |
| --- | --- |
| FCDMDYSLLCLLCSNSQEHGAHKH | 2.17 |
| FCDMDESLLCLLCSNSQEHGAHKH | 2.29 |
| FCDMDCSLLCLLCSNSQEHGAHKH | 1.95 |
| FCDMDSSLLCLLCSNSQEHGAHKH | 2.17 |
| FCDMDASLLCLLCSNSQEHGAHKH | 2.06 |
| FCDMDRSLLCLLCSNSQEHGAHKH | 1.56 |
| FCDMDHSLLCLLCSNSQEHGAHKH | 2.09 |
| FCDMDGSLLCLLCSNSQEHGAHKH | 2.18 |
| FCDMDDSLLCLLCSNSQEHGAHKH | 2.96 |
| FCDMDNSLLCLLCSNSQEHGAHKH | 2.32 |
| FCDMDTSLLCLLCSNSQEHGAHKH | 1.94 |
| FCDMDFSLLCLLCSNSQEHGAHKH | 2.24 |
| FCDMDKSLPCLLCSNSQEHGAHKH | 2.84 |
| FCDMDKSLNCLLCSNSQEHGAHKH | 2.52 |
| FCDMDKSLICLLCSNSQEHGAHKH | 1.91 |
| FCDMDKSLACLLCSNSQEHGAHKH | 1.99 |
| FCDMDKSLDCLLCSNSQEHGAHKH | 2.78 |
| FCDMDKSLTCLLCSNSQEHGAHKH | 2.29 |
| FCDMDKSLECLLCSNSQEHGAHKH | 2.99 |
| RCDMDKSLLCLLCSNSQEHGAHKH | 3.57 |
| NCDMDKSLLCLLCSNSQEHGAHKH | 3.57 |
| WCDMDKSLLCLLCSNSQEHGAHKH | 2.45 |
| ICDMDKSLLCLLCSNSQEHGAHKH | 2.81 |
| PCDMDKSLLCLLCSNSQEHGAHKH | 3.6 |

| Variant | protein stability index |
| --- | --- |
| LCDMDKSLLCLLCSNSQEHGAHKH | 3.21 |
| ACDMDKSLLCLLCSNSQEHGAHKH | 3.33 |
| VCDMDKSLLCLLCSNSQEHGAHKH | 3.25 |
| DCDMDKSLLCLLCSNSQEHGAHKH | 3.56 |
| HCDMDKSLLCLLCSNSQEHGAHKH | 3.64 |
| MCDMDKSLLCLLCSNSQEHGAHKH | 3.41 |
| FCDMDKSLLCLLCSNSQEHGARKH | 1.84 |
| FCDMDKSLLCLLCSNSQEHGAWKH | 1.45 |
| FCDMDKSLLCLLCSNSQEHGAYKH | 1.87 |
| FCDMDKSLLCLLCSNSQEHGAVKH | 1.7 |
| FCDMDKSLLCLLCSNSQEHGAGKH | 1.78 |
| FCDMDKSLLCLLCSNSQEHGANKH | 1.75 |
| FCDMDKSLLCLLCSNSQEHGALKH | 1.61 |
| FCDMDKSLLCLLCSNSQEHGASKH | 1.73 |
| FCDMDKSLLCLLCSNSQEHGAIKH | 2.17 |
| FCDMDKSLLCLLCSNSQEHGAQKH | 1.91 |
| FCDMDKSLLCLLCSNSQEHGATKH | 1.79 |
| FCDMDKSLLCLLCSNSQEHGADKH | 2.11 |
| FCDMDKSLLCLLCSNSQEHGAKKH | 1.73 |
| FCDMDKSLLCLLCSNNQEHGAHKH | 2.06 |
| FCDMDKSLLCLLCSNIQEHGAHKH | 1.57 |
| FCDMDKSLLCLLCSNAQEHGAHKH | 1.8 |
| FCDMDKSLLCLLCSNHQEHGAHKH | 2 |
| FCDMDKSLLCLLCSNEQEHGAHKH | 1.8 |

| Variant | protein stability index |
| --- | --- |
| FCDKDKSLLCLLCSNSQEHGAHKH | 1.7 |
| FCDTDKSLLCLLCSNSQEHGAHKH | 1.64 |
| FCDWDKSLLCLLCSNSQEHGAHKH | 2.13 |
| FCDSDKSLLCLLCSNSQEHGAHKH | 2.19 |
| FCDDDKSLLCLLCSNSQEHGAHKH | 2.86 |
| FCDRDKSLLCLLCSNSQEHGAHKH | 2.16 |
| FCDMDKSLLCLLLSNSQEHGAHKH | 2.07 |
| FCDMDKSLLCLLSSNSQEHGAHKH | 1.61 |
| FCDMDKSLLCLLKSNSQEHGAHKH | 2.15 |
| FCDMDKSLLCLLISNSQEHGAHKH | 2.04 |
| FCDMDKSLLCLLRSNSQEHGAHKH | 2.13 |
| FCDMDKSLLCLLHSNSQEHGAHKH | 1.88 |
| FCDMDKSLLCLLQSNSQEHGAHKH | 2.53 |
| FCDMDKSLLCLLVSNSQEHGAHKH | 2.3 |
| FCDMDKSLLCLLMSNSQEHGAHKH | 2.19 |
| FCDMDKSLLCLLPSNSQEHGAHKH | 2.13 |
| FCDMDKSLLCLLCSNSQEHGNHKH | 1.84 |
| FCDMDKSLLCLLCSNSQEHGMHKH | 2.33 |
| FCDMDKSLLCLLCSNSQEHGPHKH | 2.22 |
| FCDMDKSLLCLLCSNSQEHGQHKH | 2.23 |
| FCDMDKSLLCLLCSNSQEHGYHKH | 1.48 |
| FCDMDKSLLCLLCSNSQEHGHHKH | 1.98 |
